The record followed here is article doi:10.1101/2020.04.20.033787 (bioRxiv, 2020).

The assay deals with SBF (^FLAGSwi4-Swi6 complex) (S. cerevisiae, UniProt P25302 1-1093; P09959 1-803). In words: pull-down.
Chain of SBF (^FLAGSwi4-Swi6 complex) (P25302 whole entry, chain 1 of 2): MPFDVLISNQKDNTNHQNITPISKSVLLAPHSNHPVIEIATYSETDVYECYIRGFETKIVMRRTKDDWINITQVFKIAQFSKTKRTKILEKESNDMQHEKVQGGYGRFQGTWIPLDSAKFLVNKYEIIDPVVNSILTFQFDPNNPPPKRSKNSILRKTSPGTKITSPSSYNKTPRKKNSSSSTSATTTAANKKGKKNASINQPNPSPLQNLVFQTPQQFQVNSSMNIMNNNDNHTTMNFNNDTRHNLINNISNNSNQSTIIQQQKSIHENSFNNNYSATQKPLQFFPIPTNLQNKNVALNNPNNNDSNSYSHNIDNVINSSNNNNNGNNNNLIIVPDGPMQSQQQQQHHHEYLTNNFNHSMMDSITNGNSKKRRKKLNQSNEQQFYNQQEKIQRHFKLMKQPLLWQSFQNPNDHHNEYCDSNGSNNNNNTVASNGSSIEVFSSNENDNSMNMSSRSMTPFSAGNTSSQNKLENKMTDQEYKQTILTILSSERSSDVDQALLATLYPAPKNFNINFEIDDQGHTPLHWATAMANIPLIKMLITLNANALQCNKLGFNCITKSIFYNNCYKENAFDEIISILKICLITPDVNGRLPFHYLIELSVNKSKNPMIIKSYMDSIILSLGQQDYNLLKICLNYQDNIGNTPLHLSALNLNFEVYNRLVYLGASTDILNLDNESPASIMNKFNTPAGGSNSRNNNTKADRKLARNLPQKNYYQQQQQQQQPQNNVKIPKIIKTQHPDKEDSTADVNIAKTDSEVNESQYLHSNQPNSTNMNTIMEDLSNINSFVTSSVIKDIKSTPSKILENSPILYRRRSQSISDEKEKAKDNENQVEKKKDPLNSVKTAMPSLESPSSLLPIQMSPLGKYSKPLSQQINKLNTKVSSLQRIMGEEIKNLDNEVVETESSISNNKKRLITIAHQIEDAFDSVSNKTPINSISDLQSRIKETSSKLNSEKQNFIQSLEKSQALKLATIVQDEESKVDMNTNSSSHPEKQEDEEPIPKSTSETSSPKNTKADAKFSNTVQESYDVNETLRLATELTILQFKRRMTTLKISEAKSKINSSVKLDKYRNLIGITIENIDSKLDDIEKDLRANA
Chain of SBF (^FLAGSwi4-Swi6 complex) (P09959 whole entry, chain 2 of 2): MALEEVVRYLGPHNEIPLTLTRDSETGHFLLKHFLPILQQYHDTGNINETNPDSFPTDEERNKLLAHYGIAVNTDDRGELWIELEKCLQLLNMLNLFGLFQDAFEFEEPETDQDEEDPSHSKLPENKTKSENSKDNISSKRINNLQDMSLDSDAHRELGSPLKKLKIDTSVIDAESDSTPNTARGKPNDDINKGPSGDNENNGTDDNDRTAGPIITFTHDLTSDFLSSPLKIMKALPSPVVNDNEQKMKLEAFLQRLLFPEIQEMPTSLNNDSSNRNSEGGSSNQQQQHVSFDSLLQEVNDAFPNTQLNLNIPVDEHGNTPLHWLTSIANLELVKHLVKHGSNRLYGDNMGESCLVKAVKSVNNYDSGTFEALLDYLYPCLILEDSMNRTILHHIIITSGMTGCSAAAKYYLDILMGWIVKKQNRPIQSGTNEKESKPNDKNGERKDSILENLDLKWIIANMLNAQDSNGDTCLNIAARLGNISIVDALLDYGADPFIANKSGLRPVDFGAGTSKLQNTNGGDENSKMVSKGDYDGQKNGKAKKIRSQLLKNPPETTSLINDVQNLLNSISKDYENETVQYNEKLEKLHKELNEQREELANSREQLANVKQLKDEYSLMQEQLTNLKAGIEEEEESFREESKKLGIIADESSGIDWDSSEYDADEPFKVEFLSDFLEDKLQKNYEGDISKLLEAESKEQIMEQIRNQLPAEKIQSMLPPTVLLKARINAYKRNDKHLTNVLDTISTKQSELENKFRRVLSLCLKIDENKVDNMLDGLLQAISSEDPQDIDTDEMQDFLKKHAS

B1: ^GSTWhi5 (recombinant) (natural protein, S. cerevisiae, UniProt Q12416 1-295, looked up)
chain: MSLRTPKRSRTSDEQEQEQEQEQVQNPDTHVNNEHQQRPGPTTLLSTPVRLKNGFGTPSPPSPPGITKSITKSRRRPSTTSLQGIFMSPVNKRRVGITAHGRVYDHNDDGHESESEDDENEEENENQKKYDGHVSMPLLPPTTPKSRRSEVFLSPSPRLRSPPTAARRSTGERPIREISHTLRTRLNYALVKLQNGWTDKTLPELETELAPAVQTPPRRYHNRFPDSADAGTSAHTAFLQALGGHPPREEATAVETLMLLSSPTKKQQHRPVPATSAGEPTDETEPESDTEVETS
As for B1, the binding result is reported as “binds”.
